{
  "source": "patent US20140087995A1",
  "about": "(published 2014)",
  "binders": {"B1": {"name": "N^ε1-[2-[2-[2-[[(4S)-4-carboxy-4-(19-carboxynonadecanoylamino)butanoyl]amino]ethoxy]ethoxy]acetyl]-[Thr14,Arg17,Pro21,Pro27,Pro31]-h-amylin (peptide)", "peptide": "K([AEEA-γGlu-C20 diacid])CNTATCATQRLATFLRHSSPNFGAIPSSTPVGSNTY-NH2", "modifications": "disulfide 2-7; N-terminus assumed", "SMILES": "CC[C@H](C)[C@H](NC(=O)[C@H](C)NC(=O)CNC(=O)[C@H](Cc1ccccc1)NC(=O)[C@H](CC(N)=O)NC(=O)[C@@H]1CCCN1C(=O)[C@H](CO)NC(=O)[C@H](CO)NC(=O)[C@H](Cc1c[nH]cn1)NC(=O)[C@H](CCCNC(=N)N)NC(=O)[C@H](CC(C)C)NC(=O)[C@H](Cc1ccccc1)NC(=O)[C@@H](NC(=O)[C@H](C)NC(=O)[C@H](CC(C)C)NC(=O)[C@H](CCCNC(=N)N)NC(=O)[C@H](CCC(N)=O)NC(=O)[C@@H](NC(=O)[C@H](C)NC(=O)[C@@H]1CSSC[C@H](NC(=O)[C@@H](N)CCCCNC(=O)COCCOCCNC(=O)CC[C@H](NC(=O)CCCCCCCCCCCCCCCCCCC(=O)O)C(=O)O)C(=O)N[C@@H](CC(N)=O)C(=O)N[C@@H]([C@@H](C)O)C(=O)N[C@@H](C)C(=O)N[C@@H]([C@@H](C)O)C(=O)N1)[C@@H](C)O)[C@@H](C)O)C(=O)N1CCC[C@H]1C(=O)N[C@@H](CO)C(=O)N[C@@H](CO)C(=O)N[C@H](C(=O)N1CCC[C@H]1C(=O)N[C@H](C(=O)NCC(=O)N[C@@H](CO)C(=O)N[C@@H](CC(N)=O)C(=O)N[C@H](C(=O)N[C@@H](Cc1ccc(O)cc1)C(N)=O)[C@@H](C)O)C(C)C)[C@@H](C)O", "notes": "synthetic analogue of human amylin; also called compound 75"}, "B2": {"name": "N^ε1-[(4S)-4-carboxy-4-(19-carboxynonadecanoylamino)butanoyl]-[Arg14,Arg17,Pro21,Pro27,Pro31]-h-amylin (peptide)", "peptide": "K([γGlu-C20 diacid])CNTATCATQRLARFLRHSSPNFGAIPSSTPVGSNTY-NH2", "modifications": "disulfide 2-7; N-terminus assumed", "SMILES": "CC[C@H](C)[C@H](NC(=O)[C@H](C)NC(=O)CNC(=O)[C@H](Cc1ccccc1)NC(=O)[C@H](CC(N)=O)NC(=O)[C@@H]1CCCN1C(=O)[C@H](CO)NC(=O)[C@H](CO)NC(=O)[C@H](Cc1c[nH]cn1)NC(=O)[C@H](CCCNC(=N)N)NC(=O)[C@H](CC(C)C)NC(=O)[C@H](Cc1ccccc1)NC(=O)[C@H](CCCNC(=N)N)NC(=O)[C@H](C)NC(=O)[C@H](CC(C)C)NC(=O)[C@H](CCCNC(=N)N)NC(=O)[C@H](CCC(N)=O)NC(=O)[C@@H](NC(=O)[C@H](C)NC(=O)[C@@H]1CSSC[C@H](NC(=O)[C@@H](N)CCCCNC(=O)CC[C@H](NC(=O)CCCCCCCCCCCCCCCCCCC(=O)O)C(=O)O)C(=O)N[C@@H](CC(N)=O)C(=O)N[C@@H]([C@@H](C)O)C(=O)N[C@@H](C)C(=O)N[C@@H]([C@@H](C)O)C(=O)N1)[C@@H](C)O)C(=O)N1CCC[C@H]1C(=O)N[C@@H](CO)C(=O)N[C@@H](CO)C(=O)N[C@H](C(=O)N1CCC[C@H]1C(=O)N[C@H](C(=O)NCC(=O)N[C@@H](CO)C(=O)N[C@@H](CC(N)=O)C(=O)N[C@H](C(=O)N[C@@H](Cc1ccc(O)cc1)C(N)=O)[C@@H](C)O)C(C)C)[C@@H](C)O", "notes": "synthetic analogue of human amylin; also called compound 63"}, "B3": {"name": "N^ε1-[(4S)-4-carboxy-4-(19-carboxynonadecanoylamino)butanoyl]-[Arg14,Arg17,Pro21,Pro27,Pro34]-h-amylin (peptide)", "peptide": "K([γGlu-C20 diacid])CNTATCATQRLARFLRHSSPNFGAIPSSTNVGPNTY-NH2", "modifications": "disulfide 2-7; N-terminus assumed", "SMILES": "CC[C@H](C)[C@H](NC(=O)[C@H](C)NC(=O)CNC(=O)[C@H](Cc1ccccc1)NC(=O)[C@H](CC(N)=O)NC(=O)[C@@H]1CCCN1C(=O)[C@H](CO)NC(=O)[C@H](CO)NC(=O)[C@H](Cc1c[nH]cn1)NC(=O)[C@H](CCCNC(=N)N)NC(=O)[C@H](CC(C)C)NC(=O)[C@H](Cc1ccccc1)NC(=O)[C@H](CCCNC(=N)N)NC(=O)[C@H](C)NC(=O)[C@H](CC(C)C)NC(=O)[C@H](CCCNC(=N)N)NC(=O)[C@H](CCC(N)=O)NC(=O)[C@@H](NC(=O)[C@H](C)NC(=O)[C@@H]1CSSC[C@H](NC(=O)[C@@H](N)CCCCNC(=O)CC[C@H](NC(=O)CCCCCCCCCCCCCCCCCCC(=O)O)C(=O)O)C(=O)N[C@@H](CC(N)=O)C(=O)N[C@@H]([C@@H](C)O)C(=O)N[C@@H](C)C(=O)N[C@@H]([C@@H](C)O)C(=O)N1)[C@@H](C)O)C(=O)N1CCC[C@H]1C(=O)N[C@@H](CO)C(=O)N[C@@H](CO)C(=O)N[C@H](C(=O)N[C@@H](CC(N)=O)C(=O)N[C@H](C(=O)NCC(=O)N1CCC[C@H]1C(=O)N[C@@H](CC(N)=O)C(=O)N[C@H](C(=O)N[C@@H](Cc1ccc(O)cc1)C(N)=O)[C@@H](C)O)C(C)C)[C@@H](C)O", "notes": "synthetic analogue of human amylin; also called compound 65"}},
  "key": {"[1]": {"target": "T1, rat amylin receptor (rat calcitonin receptor + rat RAMP 3) (rat, UniProt P32214 25-516; Q9JJ73 23-147)", "T1 construct": "whole, on cells; also called rAmylin-R; rat amylin 3(a) receptor", "T1 sequence (looked up) 1": "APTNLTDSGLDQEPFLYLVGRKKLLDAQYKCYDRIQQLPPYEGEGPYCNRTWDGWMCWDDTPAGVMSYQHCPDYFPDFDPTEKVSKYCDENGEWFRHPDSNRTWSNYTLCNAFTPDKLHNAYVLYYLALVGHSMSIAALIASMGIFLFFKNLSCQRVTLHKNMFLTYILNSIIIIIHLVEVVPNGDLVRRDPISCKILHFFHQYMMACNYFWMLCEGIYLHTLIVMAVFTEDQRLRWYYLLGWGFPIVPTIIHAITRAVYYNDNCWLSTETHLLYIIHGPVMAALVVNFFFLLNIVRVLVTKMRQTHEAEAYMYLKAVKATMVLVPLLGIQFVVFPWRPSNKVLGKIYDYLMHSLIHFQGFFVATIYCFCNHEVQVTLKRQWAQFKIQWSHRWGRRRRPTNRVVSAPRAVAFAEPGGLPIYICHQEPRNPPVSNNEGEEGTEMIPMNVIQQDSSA", "T1 sequence (looked up) 2": "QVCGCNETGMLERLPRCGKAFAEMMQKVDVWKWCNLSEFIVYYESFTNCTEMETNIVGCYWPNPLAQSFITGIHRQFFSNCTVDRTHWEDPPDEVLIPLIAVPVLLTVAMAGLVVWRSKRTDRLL", "experiment": "SPA competition with 125I-rat amylin, membranes of BHK cells with rat calcitonin receptor + rat RAMP3 (Assay VI)"}, "rat calcitonin receptor [2]": {"target": "T2, rat calcitonin receptor (rat, UniProt P32214 25-516)", "T2 construct": "whole, on cells; also called rCTR; rat calcitonin (a) receptor", "T2 sequence (looked up)": "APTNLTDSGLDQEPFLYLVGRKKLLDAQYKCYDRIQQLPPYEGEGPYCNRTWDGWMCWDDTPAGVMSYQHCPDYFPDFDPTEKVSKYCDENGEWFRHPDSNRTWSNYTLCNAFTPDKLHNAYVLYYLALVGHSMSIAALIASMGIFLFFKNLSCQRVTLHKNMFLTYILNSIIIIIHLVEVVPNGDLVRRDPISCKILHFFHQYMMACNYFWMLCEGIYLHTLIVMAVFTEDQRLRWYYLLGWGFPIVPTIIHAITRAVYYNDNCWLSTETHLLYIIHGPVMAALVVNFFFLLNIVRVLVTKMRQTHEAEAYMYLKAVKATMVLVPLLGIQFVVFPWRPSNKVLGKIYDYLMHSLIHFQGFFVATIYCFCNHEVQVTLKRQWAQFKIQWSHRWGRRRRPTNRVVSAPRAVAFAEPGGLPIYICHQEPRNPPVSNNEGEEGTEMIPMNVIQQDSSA", "experiment": "ratio of binding IC50s: rat calcitonin receptor over rat amylin receptor (reference)"}, "[3]": {"target": "T3, human calcitonin receptor (human, UniProt P30988 25-474)", "T3 construct": "whole, on cells; also called hCTR; hCT", "T3 sequence (looked up)": "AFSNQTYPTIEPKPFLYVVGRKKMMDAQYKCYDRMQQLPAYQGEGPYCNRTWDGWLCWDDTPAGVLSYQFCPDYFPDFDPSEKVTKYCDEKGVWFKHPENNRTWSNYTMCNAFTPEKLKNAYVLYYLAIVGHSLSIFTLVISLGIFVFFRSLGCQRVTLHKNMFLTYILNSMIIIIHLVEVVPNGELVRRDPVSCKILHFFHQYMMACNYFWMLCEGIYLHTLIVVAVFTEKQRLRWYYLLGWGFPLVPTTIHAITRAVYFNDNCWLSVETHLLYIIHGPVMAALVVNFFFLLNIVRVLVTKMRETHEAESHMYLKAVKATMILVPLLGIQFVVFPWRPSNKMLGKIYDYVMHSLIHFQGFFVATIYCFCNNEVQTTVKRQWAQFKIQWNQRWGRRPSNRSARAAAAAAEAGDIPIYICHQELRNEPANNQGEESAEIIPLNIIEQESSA", "experiment": "ratio of binding IC50s: human calcitonin receptor over human amylin receptor (reference)", "outline": "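Scintillation proximity competition binding on cell membranes at 35 ng/μL with SPA beads, in 50 mM Hepes pH 7.4, 1 mM CaCl2, 5 mM MgCl₂, 0.1% OA, 0.02% Tween20. Incubated 120 min at 25° C with shaking. IC₅₀ from one-site competition fit.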"}, "rat calcitonin receptor [4]": {"target": "T2, rat calcitonin receptor", "experiment": "SPA competition with 125I-calcitonin, membranes of BHK cells with rat calcitonin receptor (Assay VIII)"}},
  "note": "Numbered stars: 1 amine (or outer) side, 2 acyl side, 3 side chain; on linkers, the order of the positions; unused ones are H or OH. Bridge positions count the residues as written; N and C are the ends. Side chains are listed from the residue outwards. Ends that are not written are not given here. * marks the point of attachment. C20 diacid = O=C(O)CCCCCCCCCCCCCCCCCCC(=O)*; γGlu = O=C(O)[C@H](CCC(=O)[*:2])N[*:1]; AEEA = NCCOCCOCC(=O)O",
  "data": [
    {"binder": "B1", "values": [
      {"measurement": "IC50", "setting": "[1]", "result": 4.03, "unit": "nM"},
      {"measurement": "Ratio rCT/rAmylin binding", "setting": "rat calcitonin receptor [2]", "result": 110},
      {"measurement": "Ratio hCT/hAmylin binding", "setting": "[3]", "result": 91.4},
      {"measurement": "IC50", "setting": "rat calcitonin receptor [4]", "result": 442, "unit": "nM"}
    ]},
    {"binder": "B2", "values": [
      {"measurement": "IC50", "setting": "[1]", "result": 3.48, "unit": "nM"},
      {"measurement": "Ratio rCT/rAmylin binding", "setting": "rat calcitonin receptor [2]", "result": 35.6},
      {"measurement": "Ratio hCT/hAmylin binding", "setting": "[3]", "result": 157},
      {"measurement": "IC50", "setting": "rat calcitonin receptor [4]", "result": 124, "unit": "nM"}
    ]},
    {"binder": "B3", "values": [
      {"measurement": "IC50", "setting": "[1]", "result": 1.16, "unit": "nM"},
      {"measurement": "Ratio rCT/rAmylin binding", "setting": "rat calcitonin receptor [2]", "result": 93.2},
      {"measurement": "Ratio hCT/hAmylin binding", "setting": "[3]", "result": 82.4},
      {"measurement": "IC50", "setting": "rat calcitonin receptor [4]", "result": 108, "unit": "nM"}
    ]}
  ]
}
